Results: patent US20250059285A1 (ARGENX, published 2025)

T1: human Gal10-His (human, UniProt Q05315 2-142, limits assumed)
T1 construct: also called hGal10-His; human Gal10-His tagged; not shown: His tag
T1 sequence: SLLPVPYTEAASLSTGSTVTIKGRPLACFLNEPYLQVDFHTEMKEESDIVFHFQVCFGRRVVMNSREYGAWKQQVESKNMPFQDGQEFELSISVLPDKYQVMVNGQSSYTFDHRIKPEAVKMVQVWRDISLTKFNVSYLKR


Columns and labels:
[1] = target: T1, human Gal10-His; assay: SPR Biacore 3000, Fab periplasmic extract on Gal10-His-coated CM5
Method: The binding properties of the Fabs (periplasmic extract) to human Gal10-His were analyzed by SPR with a Biacore 3000 instrument. For this purpose, the diluted periplasmic extract was applied on a CM5 chip coated with human Gal10-His. As a positive control, a 20 nM injection of the purified g7B07 clone in the human Fab backbone was included at the beginning and end of the run.
The binding capacity of the Fab periplasmic extract was analyzed by SPR technology using a Biacore 3000. Briefly, diluted periplasmic extracts were injected on CM5 chip coated with 2500 RU of Gal10-His. The amplitude of the binding (Rmax), the dissociation (off-rate) of each clone, as well as the off-rate fold change compared to the controls (g7B07 and g7B07_N53A) are indicated. Clones g20H09 and g23H09 had similar or better off rate compared to the control g7B07 (Table 10). The randomized part of the CDR2 sequence is underlined (Table 10).

[2] = target: T2, cynomolgus Gal10-His (WGS isoform) (cynomolgus); assay: SPR Biacore 3000, hFab on cynomolgus Gal10-His (WGS) captured by anti-His CM5
T2 construct: also called cynomolgus antigen
Method: (§1) The binding properties of the selected clones to human and cynomolgus Gal10 was analyzed via a capture method established on a Biacore 3000 instrument.
(§2) For this purpose, two approaches were used. In the first, two concentrations of the selected clones were applied on cynomolgus (WGS isoform) Gal10-His capture on a CM5 chip coated with a monoclonal anti-His antibody. The second approach involved a serial dilution that was applied on human or cynomolgus (WGS isoform) Gal10-His in the same set-up.

[3] = target: T2, cynomolgus Gal10-His (WGS isoform); assay: SPR Biacore 3000, hFab on captured cynomolgus Gal10-His (WGS); column head prints (M), the text gives nM
Method: as §1, §2

[4] = target: T1, human Gal10-His; assay: SPR Biacore 3000, hFab on captured human Gal10-His; column head prints (M), the text gives nM
Method: as §1, §2

[5] = target: T1, human Gal10-His; assay: SPR Biacore 3000, purified hFab (2 conc.) on Gal10-His captured by anti-His CM5
Method: (§3) The binding properties of the selected Fab clones to human Gal10 were analyzed via a capture method established on a Biacore 3000 instrument. Two concentrations of the selected Fab clones were tested on human Gal10-His immobilized on a CM5 chip coated with a monoclonal anti-His. As controls, the clone g7B07 and g7B07_N53A were injected at the beginning and the end of the run. Briefly, a CM5 chip was coated with a monoclonal anti-His antibody (4000 RU), then a fixed concentration of the human Gal10-His (25 μg/mL) was captured on the anti-His chip before receiving two concentrations of the clones in the human Fab backbone.

[6] = target: T1, human Gal10-His; assay: SPR Biacore 3000, purified hFab on captured Gal10-His
Method: as §3

[7] = target: T1, human Gal10-His; assay: SPR slope against calibrators on captured Gal10-His; T0 sample
Method: (§4) The binding properties of the seven selected clones following two weeks of temperature stress was analysed using an optimized capture method on a Biacore 3000 instrument. The binding properties of the stressed samples were determined, compared to the calibration point, and expressed as a percentage of Relative Activity (% RA).
(§5) Briefly, a capture method was set-up on a Biacore 3000 instrument. For this purpose, a CM5 chip was coated with a monoclonal anti-His antibody (4000 RU), then a fixed concentration of the human Gal10-His (25 μg/mL) was captured on the anti-His chip before receiving duplicate injections of the calibrators, QC samples and temperature stressed samples of each clone. The slope of each injected sample was then calculated using the BIA evaluation software. Concentrations of the QC samples and temperature stressed samples were back-calculated by interpolating the obtained slopes of these samples to the calibrator curve. Obtained values were within +/−20% of the nominal concentration of the tested samples and are expressed as average relative accuracy (avg % RA) (Table 13).

[8] = target: T1, human Gal10-His; assay: SPR Biacore 3000, hFab on human Gal10-His captured by anti-His CM5
Method: as §1, §2

[9] = target: T1, human Gal10-His; assay: SPR slope against calibrators on captured Gal10-His; sample 2 weeks at 37 C
Method: as §4, §5

[10] = target: T1, human Gal10-His; assay: competition ELISA on coated Gal10-His; hFab 20 ug/mL, competitor g7B07-hFab-Biot, streptavidin-HRP
Method: An epitope binning analysis of the humanized Fab clones was carried out in comparison with the humanized Fab of g7B07.
For this experiment, a sub-optimal concentration of the biotinylated clone g7B07-humanized Fab was added to the Gal10 coated plate and pre-incubated with the selected clones. The percentage competition with g7B07 was then determined (Table 17). Motavizumab (Mota) in a human Fab backbone was used as a negative control (0% competition). Clone g7B07 was used as the positive control for competition and was therefore set as the 100% competition value. The anti-human specific clone 1D11 (binding to Tyrosine 69 residue) was included in the tested panel as a negative control for competition with 7B07 for Gal10 binding because it was known that clone 1D11 binds to the opposite side of Gal10 (including Tyrosine 69).

Binder	Fold off-rate compared to g7B07 [1] [fold]	koff [1] [s⁻¹]	further results
g20B05 (Fab, periplasmic extract) (Fab, V domains shown, X3 library; VH assembled by inference) VH: EVQLLESGGGLVQPGGSLRLSCAASGFTFRSYDMSWVRQAPGKGLEWVSAIKPVGITYYADSVKGRFTISRDNSKNTLYLQMNSLRAEDTAVYYCATTHGIGTLGFGSWGQGTLVTVSS VL: SYELTQPLSVSVALGQTARITCDGNNIGSKSAQWYQQKPGQAPVLVIYADEYRPEGIPERFSGSNSGNTATLTISRAQAGDEADYYCQVWDGSAAVFGGGTQLTVL	3.3	0.023	
g21F11 (Fab, periplasmic extract) (Fab, V domains shown, X4 library; VH assembled by inference) VH: EVQLLESGGGLVQPGGSLRLSCAASGFTFRSYDMSWVRQAPGKGLEWVSAIHTPMTYYADSVKGRFTISRDNSKNTLYLQMNSLRAEDTAVYYCATTHGIGTLGFGSWGQGTLVTVSS VL: SYELTQPLSVSVALGQTARITCDGNNIGSKSAQWYQQKPGQAPVLVIYADEYRPEGIPERFSGSNSGNTATLTISRAQAGDEADYYCQVWDGSAAVFGGGTQLTVL	5.1	0.035	
g24F02 (human Fab) (Fab, V domains shown, Human Fab backbone (human CH1, human lambda CL); also called germlined 24F02) VH: EVQLLESGGGLVQPGGSLRLSCAASGFTFSSYAMSWVRQAPGKGLEWVSAINNGGGSTSYADSVKGRFTISRDNSKNTLYLQMNSLRAEDTAVYYCAKGLRVGVLGFDYWGQGTLVTVSS VL: SYELTQPLSVSVALGQTARITCDGNNIGSKSAQWYQQKPGQAPVLVIYADEYRPEGIPERFSGSNSGNTATLTISRAQAGDEADYYCQVWDGSAAVFGGGTQLTVL			Amplitude R0 [2]: 566 RU; koff [2]: 0.0078 s⁻¹; kon [2]: 1.4e+06 M⁻¹ s⁻¹; Kd [3]: 5.4 nM; Kd [4]: 1.49 nM; Kd [5]: 2 nM; kd-fold drop vs g7B07 [5]: 2.8 fold; koff [5]: 0.0016 s⁻¹; kon [5]: 830000 M⁻¹ s⁻¹; fold better affinity than g7B07 [6]: 4.7 fold; % Relative Activity (RA) on Biacore [7]: 101%; Amplitude R0 [8]: 644 RU; koff [8]: 0.0016 s⁻¹; kon [8]: 1.1e+06 M⁻¹ s⁻¹; % Relative Activity (RA) on Biacore [9]: 175%; % Competition against g7B07-Biot [10]: 96.5%; Mean OD value [10]: 0.26 OD
g20F04 (Fab, periplasmic extract) (Fab, V domains shown, X3 library) VH: EVQLLESGGGLVQPGGSLRLSCAASGFTFRSYDMSWVRQAPGKGLEWVSAIKHQVITYYADSVKGRFTISRDNSKNTLYLQMNSLRAEDTAVYYCATTHGIGTLGFGSWGQGTLVTVSS VL: SYELTQPLSVSVALGQTARITCDGNNIGSKSAQWYQQKPGQAPVLVIYADEYRPEGIPERFSGSNSGNTATLTISRAQAGDEADYYCQVWDGSAAVFGGGTQLTVL	2.3	0.016	
g23H11 (Fab, periplasmic extract) (Fab, V domains shown, X6 library; VH assembled by inference) VH: EVQLLESGGGLVQPGGSLRLSCAASGFTFRSYDMSWVRQAPGKGLEWVSAISKMPHLTYYADSVKGRFTISRDNSKNTLYLQMNSLRAEDTAVYYCATTHGIGTLGFGSWGQGTLVTVSS VL: SYELTQPLSVSVALGQTARITCDGNNIGSKSAQWYQQKPGQAPVLVIYADEYRPEGIPERFSGSNSGNTATLTISRAQAGDEADYYCQVWDGSAAVFGGGTQLTVL	3.6	0.025	
g21C06 (Fab, periplasmic extract) (Fab, V domains shown, X4 library; VH assembled by inference) VH: EVQLLESGGGLVQPGGSLRLSCAASGFTFRSYDMSWVRQAPGKGLEWVSAIKRPWTYYADSVKGRFTISRDNSKNTLYLQMNSLRAEDTAVYYCATTHGIGTLGFGSWGQGTLVTVSS VL: SYELTQPLSVSVALGQTARITCDGNNIGSKSAQWYQQKPGQAPVLVIYADEYRPEGIPERFSGSNSGNTATLTISRAQAGDEADYYCQVWDGSAAVFGGGTQLTVL	5.2	0.036	
g23E05 (Fab, periplasmic extract) (Fab, V domains shown, X6 library; VH assembled by inference) VH: EVQLLESGGGLVQPGGSLRLSCAASGFTFRSYDMSWVRQAPGKGLEWVSAIRTFEHHTYYADSVKGRFTISRDNSKNTLYLQMNSLRAEDTAVYYCATTHGIGTLGFGSWGQGTLVTVSS VL: SYELTQPLSVSVALGQTARITCDGNNIGSKSAQWYQQKPGQAPVLVIYADEYRPEGIPERFSGSNSGNTATLTISRAQAGDEADYYCQVWDGSAAVFGGGTQLTVL	1.8	0.013	
g23G11 (Fab, periplasmic extract) (Fab, V domains shown, X6 library; VH assembled by inference) VH: EVQLLESGGGLVQPGGSLRLSCAASGFTFRSYDMSWVRQAPGKGLEWVSAIQKTIVPTYYADSVKGRFTISRDNSKNTLYLQMNSLRAEDTAVYYCATTHGIGTLGFGSWGQGTLVTVSS VL: SYELTQPLSVSVALGQTARITCDGNNIGSKSAQWYQQKPGQAPVLVIYADEYRPEGIPERFSGSNSGNTATLTISRAQAGDEADYYCQVWDGSAAVFGGGTQLTVL	2.6	0.018	
g22C03 (Fab, periplasmic extract) (Fab, V domains shown, X5 library; VH assembled by inference) VH: EVQLLESGGGLVQPGGSLRLSCAASGFTFRSYDMSWVRQAPGKGLEWVSAIKLGTFTYYADSVKGRFTISRDNSKNTLYLQMNSLRAEDTAVYYCATTHGIGTLGFGSWGQGTLVTVSS VL: SYELTQPLSVSVALGQTARITCDGNNIGSKSAQWYQQKPGQAPVLVIYADEYRPEGIPERFSGSNSGNTATLTISRAQAGDEADYYCQVWDGSAAVFGGGTQLTVL	2.9	0.02	
g21B01 (Fab, periplasmic extract) (Fab, V domains shown, X4 library; VH assembled by inference) VH: EVQLLESGGGLVQPGGSLRLSCAASGFTFRSYDMSWVRQAPGKGLEWVSAISGALTYYADSVKGRFTISRDNSKNTLYLQMNSLRAEDTAVYYCATTHGIGTLGFGSWGQGTLVTVSS VL: SYELTQPLSVSVALGQTARITCDGNNIGSKSAQWYQQKPGQAPVLVIYADEYRPEGIPERFSGSNSGNTATLTISRAQAGDEADYYCQVWDGSAAVFGGGTQLTVL	3.8	0.026	
